Reference: patent US20220411511A1 (STCUBE, published 2022)

T1: CTLA-4 WT expressed on 293T cells (human, UniProt P16410 36-223, N-linked glycosylation at N113 and N145)
T1 construct: also called wild type CTLA-4; Flag-tagged CTLA-4 WT
T1 sequence: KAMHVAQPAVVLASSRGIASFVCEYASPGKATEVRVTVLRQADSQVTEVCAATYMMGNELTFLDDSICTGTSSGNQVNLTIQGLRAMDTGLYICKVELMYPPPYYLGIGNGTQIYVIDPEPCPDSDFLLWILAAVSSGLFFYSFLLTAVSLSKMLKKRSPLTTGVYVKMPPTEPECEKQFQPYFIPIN

T2: CTLA-4-His (human, UniProt P16410 36-161, limits assumed, N-linked glycosylation at N113 and N145 (heavily glycosylated))
T2 construct: also called antigen CTLA-4-His; not shown: His tag
T2 sequence: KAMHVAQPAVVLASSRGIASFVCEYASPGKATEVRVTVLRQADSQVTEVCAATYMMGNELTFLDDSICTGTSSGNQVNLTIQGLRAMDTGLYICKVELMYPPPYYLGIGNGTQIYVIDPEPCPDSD


Tests used:
[1] = biological target: T1, CTLA-4 WT expressed on 293T cells; experiment: IncuCyte, inhibition of CD86-Fc binding to 293T cells expressing CTLA-4
Description: (§1) The green fluorescent signals were measured every 2 hours and quantified using an IncuCyte Zoom system (Essen BioScience).

CTLA-4-His [2] = biological target: T2, CTLA-4-His; experiment: Octet BLI, antibody loaded on sensor, 1:1 fit
Description: KD determination and binning by Octet. […] Baseline was established in PBS containing 1 mg/ml bovine serum albumin (assay buffer), the association step was performed by submerging the sensors in a single concentration of analyte in assay buffer. Dissociation was performed and monitored in fresh assay buffer. All experiments were performed with sensor shaking at 1,000 rpm. ForteBio's data analysis software was used to fit the data to a 1:1 binding model to extract an association rate and dissociation rate. The KD was calculated using the ratio kd/kₐ. In a typical epitope binning assay, antigen CTLA-4-His (10 nM) was preincubated with the second antibody (10 nM) for 1 h at room temperature. Control antibody (20 nM) was loaded onto AMC sensors (ForteBio) and remaining Fc-binding sites on the sensor were blocked with a whole mouse IgG antibody (Jackson ImmunoResearch). The sensors were exposed to preinculated antigen-second antibody mixture. Raw data was processed using ForteBio's Data Analysis Software 7.0 and the antibody pairs were assessed for competitive binding.
The baseline was established in PBS containing 1 mg/mL bovine serum albumin (assay buffer), and the association step was performed by submerging the sensors in a single concentration of analyte in assay buffer. Dissociation was performed and monitored in fresh assay buffer. All experiments were performed with the sensor shaking at 1,000 rotations per minute. ForteBio (Menlo Park, Calif., USA) data analysis software was used to fit the data to a 1:1 binding model to extract an association rate and dissociation rate. KD was calculated using the ratio kd:ka.

[3] = biological target: T3, CTLA-4 N113Q mutant expressed in 293T cells (human, UniProt P16410 36-223); experiment: blot under native condition of 293T cells expressing flag-tagged CTLA-4
T3 construct: Flag-tagged; single-glycosylated (only N145 can carry a glycan); Tested by Western blot

[4] = biological target: T4, CTLA-4 2NQ (non-glycosylated form) expressed in 293T cells (human, UniProt P16410 36-223); experiment: as above
T4 construct: also called CTLA-4 2NQ mutant; unglycosylated CTLA-4

[5] = biological target: T5, CTLA-4 N145Q mutant expressed in 293T cells (human, UniProt P16410 36-223); experiment: as above
T5 construct: Flag-tagged; single-glycosylated (only N113 can carry a glycan); Tested by Western blot

CTLA-4-His [6] = biological target: T2, CTLA-4-His; experiment: Biacore X100 SPR, antibody captured on CM5 chip, six concentrations of CTLA4, 1:1 fit
Description: KD determination was performed via surface plasmon resonance using a Biacore X100 instrument (GE Healthcare, Uppsala, Sweden). […] was immobilized on a research-grade CM5 chip using standard procedures, and antibody was flowed over the chip at 2 μg/mL in HBS-EP⁺ buffer. Next, six concentrations of CTLA4, each a 2-fold dilution, were passed over the chip. Sensorgram data were analyzed by Biacore X100 evaluation software version 2.0.1 with 1:1 binding kinetics.

[7] = biological target: T1, CTLA-4 WT expressed on 293T cells; experiment: IncuCyte, inhibition of CD86-Fc binding to CTLA-4-expressing cells; human chimera hSTC1807 (FIG. 8B), not the mouse STC1807 of FIG. 7B (2.189 µg/mL)
Description: as §1

Binder	EC50 [1] [µg/mL]	Kd (CTLA-4-His [2]) [nM]	koff (CTLA-4-His [2]) [s⁻¹]	kon (CTLA-4-His [2]) [M⁻¹ s⁻¹]	binding result [3]	binding result [4]	binding result [5]	Kd (CTLA-4-His [6]) [nM]	koff (CTLA-4-His [6]) [s⁻¹]	kon (CTLA-4-His [6]) [M⁻¹ s⁻¹]	EC50 [7] [µg/mL]
anti-glycCTLA-4 monoclonal antibody STC1807 (antibody, V domains shown, Mouse hybridoma monoclonal antibody (BALB/c), kappa light chain; also called MAb STC1807) VH: EVQLQQSGAELVRPGALVKLSCKASGFNIKDYYMNWVKQRPEQGLEWIGWIDPENGNTIYDPKFQGKASIIADTSSNTAYLQLSSLTSEDTAVYYCARKWSYTMDYWGQGTSVTVSS VL: QIVLTQSPALMSASPGEKVTMTCSASSFVGYMYWYQQKPRSSPKPWIYLTSNLASGVPGRFSGSGSGTSYSLTISNMEAEDAATYYCQQWSSNPLTFGAGTKLELK	2.19	1.86	0.000499	268000	no binding	no binding	binds	0.469	0.000217	463000	
human chimera of STC1807 (hSTC1807) (antibody, V domains shown, domain: kappa constant region of pFUSEss-CLIg-hK; Mouse constant regions replaced by human ones; also called human chimera STC1807; chimeric antibody (hSTC1807); not shown: human IgG1 constant region (CH1-CH3) from vector pFUSEss-CHIg-hG1 (Invivogen)) VH: EVQLQQSGAELVRPGALVKLSCKASGFNIKDYYMNWVKQRPEQGLEWIGWIDPENGNTIYDPKFQGKASIIADTSSNTAYLQLSSLTSEDTAVYYCARKWSYTMDYWGQGTSVTVSS VL: QIVLTQSPALMSASPGEKVTMTCSASSFVGYMYWYQQKPRSSPKPWIYLTSNLASGVPGRFSGSGSGTSYSLTISNMEAEDAATYYCQQWSSNPLTFGAGTKLELKR											0.331
